Laboratory results published in the supplement of paper PMC10567573.

B1: SMTNL2 (parent)
chain: AFTMAENLANCERLIEVEDMMVMG

Variants of: B1
Assay: protein stability index of a GFP-peptide fusion (GPS, HEK-293T) (PSI 1-6); higher = more stable
Settings: c terminus: a fixed tail appended
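Further: lentivirally expressed fusions sorted by FACS into six bins by GFP to DsRed ratio, PSI derived from sequencing read proportions per bin multiplied by bin number.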

| Variant | protein stability index |
| --- | --- |
| AFTMAENLANCWRLIEVEDMMVMG [E12W] | 2.71 |
| AFTMAENLANCYRLIEVEDMMVMG [E12Y] | 2.13 |
| AFTMAENLANCERLIEVEGMMVMG [D19G] | 2.52 |
| AFTMAENLANCERLIEVEHMMVMG [D19H] | 1.28 |
| AFTMAENLANCERLIEVEYMMVMG [D19Y] | 2.48 |
| AFTMAENLANCERLIEVEPMMVMG [D19P] | 1.71 |
| AFTMAENLANCERLIEVEQMMVMG [D19Q] | 2.06 |
| AFTMAENLANCERLIEVEFMMVMG [D19F] | 2.37 |
| AFTMAENLANCERLIEVEKMMVMG [D19K] | 3.26 |
| AFTMAENLANCERLIEVESMMVMG [D19S] | 1.62 |
| AFTMAENLANCERLIEVETMMVMG [D19T] | 1.94 |
| AFTMAENLANCERLIEVENMMVMG [D19N] | 2.63 |
| AFTMAENLANCERLIEVERMMVMG [D19R] | 1.39 |
| AFTMAENLANCERLIEVEWMMVMG [D19W] | 4.57 |
| AFTMAENLANCERLIEVEAMMVMG [D19A] | 2.36 |
| AFTMAENLANCERLIEVEEMMVMG [D19E] | 1.48 |
| AFTMAENLANCERLIEVEDMMNMG [V22N] | 2.44 |
| AFTMAENLANCERLIEVEDMMYMG [V22Y] | 2.07 |
| AFTMAENLANCERLIEVEDMMSMG [V22S] | 1.99 |
| AFTMAENLANCERLIEVEDMMEMG [V22E] | 3.18 |
| AFTMAENLANCERLIEVEDMMAMG [V22A] | 2.05 |
| AFTMAENLANCERLIEVEDMMMMG [V22M] | 2.19 |
| AFTMAENLANCERLIEVEDMMCMG [V22C] | 2.19 |
| AFTMAENLANCERLIEVEDMMIMG [V22I] | 1.78 |

| Variant | protein stability index |
| --- | --- |
| AFTMAENLANCERLIEVEDMMTMG [V22T] | 2.25 |
| AFTMAENLANCERLIEVEDMMPMG [V22P] | 2.65 |
| AFTMAENLANCERLIEVEDMMKMG [V22K] | 2.87 |
| AFTMAENLANCERLIEVEDMMDMG [V22D] | 2.55 |
| AFTMAENLANCERLIEVEDMMRMG [V22R] | 2.46 |
| AFTMAENLANCERLIEVEDMMWMG [V22W] | 1.77 |
| AFTMAENLANCERLIEVEDMMLMG [V22L] | 2.18 |
| AFTMAENLANCERLIEVEDMMHMG [V22H] | 1.85 |
| AFTMAENLANCERLIEVEDMMQMG [V22Q] | 2.82 |
| AFTMAENLANCERLIEVEDMMGMG [V22G] | 2.54 |
| AFTMAENLANCERLIEVEDNMVMG [M20N] | 3.03 |
| AFTMAENLANCERLIEVEDLMVMG [M20L] | 1.9 |
| AFTMAENLANCERLIEVEDCMVMG [M20C] | 2.74 |
| AFTMAENLANCERLIEVEDKMVMG [M20K] | 2.91 |
| AFTMAENLANCERLIEVEDDMVMG [M20D] | 4.75 |
| AFTMAENLANCERLIEVEDYMVMG [M20Y] | 1.72 |
| AFTMAENLANCERLIEVEDAMVMG [M20A] | 2.42 |
| AFTMAENLANCERLIEVEDTMVMG [M20T] | 3.4 |
| AFTMAENLANCERLIEVEDQMVMG [M20Q] | 2.72 |
| AFTMAENLANCERLIEVEDWMVMG [M20W] | 2.51 |
| AFTMAENLANCERLIEVEDSMVMG [M20S] | 2.27 |
| AFTMAENLANCERLIEVEDHMVMG [M20H] | 2.98 |
| AFTMAENLANCERLIEVEDGMVMG [M20G] | 2.47 |
| AFTMAENLANCERLIEVEDPMVMG [M20P] | 3.77 |

| Variant | protein stability index |
| --- | --- |
| AFTMAENLANCERLIEVEDVMVMG [M20V] | 2.68 |
| AFTMAENLANCERLIEVEDRMVMG [M20R] | 2.16 |
| AFTMAENLANCERLIEVEDIMVMG [M20I] | 2.03 |
| AFTMAENLANCERLIEVEDEMVMG [M20E] | 4.02 |
| AFTMAENLANCERHIEVEDMMVMG [L14H] | 3.86 |
| AFTMAENLANCERMIEVEDMMVMG [L14M] | 2.34 |
| AFTMAENLANCERAIEVEDMMVMG [L14A] | 3.33 |
| AFTMAENLANCERGIEVEDMMVMG [L14G] | 3.96 |
| AFTMAENLANCERQIEVEDMMVMG [L14Q] | 3.12 |
| AFTMAENLANCERIIEVEDMMVMG [L14I] | 1.87 |
| AFTMAENLANCERTIEVEDMMVMG [L14T] | 3.5 |
| AFTMAENLANCERWIEVEDMMVMG [L14W] | 1.59 |
| AFTMAENLANCERSIEVEDMMVMG [L14S] | 3.08 |
| AFTMAENLANCERNIEVEDMMVMG [L14N] | 4.2 |
| AFTMAENLANCEREIEVEDMMVMG [L14E] | 3.64 |
| AFTMAENLANCERYIEVEDMMVMG [L14Y] | 2.13 |
| AFTMAENLANCERRIEVEDMMVMG [L14R] | 3.4 |
| AFTMAENLANCERCIEVEDMMVMG [L14C] | 3.33 |
| AFTMAENLANCERKIEVEDMMVMG [L14K] | 3.89 |
| AFTMAENLANCERDIEVEDMMVMG [L14D] | 4.59 |
| AFTMAENLANCERFIEVEDMMVMG [L14F] | 2.62 |
| AFTMAENLANCERVIEVEDMMVMG [L14V] | 2.47 |
| AFTMAENLANCERPIEVEDMMVMG [L14P] | 3.69 |
| AFTMAENLANCERLIEVEDMFVMG [M21F] | 2.56 |

| Variant | protein stability index |
| --- | --- |
| AFTMAENLANCERLIEVEDMTVMG [M21T] | 2.68 |
| AFTMAENLANCERLIEVEDMDVMG [M21D] | 3.83 |
| AFTMAENLANCERLIEVEDMVVMG [M21V] | 2.18 |
| AFTMAENLANCERLIEVEDMAVMG [M21A] | 2.37 |
| AFTMAENLANCERLIEVEDMLVMG [M21L] | 2.39 |
| AFTMAENLANCERLIEVEDMGVMG [M21G] | 2.12 |
| AFTMAENLANCERLIEVEDMSVMG [M21S] | 2.65 |
| AFTMAENLANCERLIEVEDMNVMG [M21N] | 3.13 |
| AFTMAENLANCERLIEVEDMWVMG [M21W] | 1.9 |
| AFTMAENLANCERLIEVEDMCVMG [M21C] | 2.14 |
| AFTMAENLANCERLIEVEDMIVMG [M21I] | 1.98 |
| AFTMAENLANCERLIEVEDMKVMG [M21K] | 2.95 |
| AFTMAENLANCERLIEVEDMQVMG [M21Q] | 3 |
| AFTMAENLANCERLIEVEDMEVMG [M21E] | 4.11 |
| AFTMAENLANCERLIEVEDMRVMG [M21R] | 2.23 |
| AFTMAENLANCERLIEVEDMHVMG [M21H] | 3.02 |
| AFTMAENLANCERLIEVEDMYVMG [M21Y] | 2.22 |
| AFTMAENLANCERLIEVEDMPVMG [M21P] | 3.27 |
| AFTMAENLANCEQLIEVEDMMVMG [R13Q] | 3.17 |
| AFTMAENLANCESLIEVEDMMVMG [R13S] | 3.15 |
| AFTMAENLANCEALIEVEDMMVMG [R13A] | 2.33 |
| AFTMAENLANCEGLIEVEDMMVMG [R13G] | 3.46 |
